In patent publication US9505841B2, “Use of an anti-Ang2 antibody” (Samsung Electronics Co., Ltd., priority 2013, dated 2016):

Legend:
Assay type in all cases: cell-based, human
ICAM-1 = test: LPS-induced mRNA expression of ICAM-1 in HUVEC (qPCR); settings: 100 ng/ml LPS 5 hours, 0.2 ug/ml Ang1 or 0.1 ug/ml Ang2 + 0.5 ug/ml antibody
Description: (§1) To see anti-inflammatory effects by antibody 10D6, HUVEC (ATCC) cells (4×10^5) were treated with Ang2 alone or Ang2 together with antibody 10D6, and a group in which Ang1 and Ang2 (R&D systems) and Regeneron Co. antibody (RG antibody) were co-treated was included as a control group. HUVEC cells were treated with 0.2 ug/ml of Ang1, 0.1 ug/ml of Ang2, or 0.1 ug/ml of Ang2 and 0.5 ug/ml of antibody, respectively and after 30-min. pre-incubation, they were treated with 100 ng/ml of LPS (Sigma) to induce inflammatory response and incubated for 5 hours.
(§2) The degree of the inflammatory response was identified by measuring the mRNA expression degree of an inflammatory adhesion substance (ICAM-1, E-selectin). The cells were washed using PBS, RNA was extracted using RNeasy Mini kit (Qiagen), and among them, 2 ug of RNA was synthesized into cDNA using Transcriptor First Strand cDNA synthesis kit (Roche). qPCR reaction was performed using RT2 SYBR™ Green Mastermix (Qiagen) and LightCycler™ 480 Real-Time PCR System (Roche). As an internal control for calibrating the amount of RNA in a sample, HPRT1 was used, and qPCR complied with the following procedures with regard to all the primers.
(§3) Step 1: 95° C., 10 min; Step 2 (45 cycles): Step 2-1: 95° C., 15 sec; Step 2-2: 60° C., 1 min; Step 3: 65° C., 15 sec; Step 4: 95° C., continuous (every 20° C.); Step 6: 40° C., 10 sec.

[1] = test system: HL-60 cells adhered to HUVEC cells; test: Binding between inflammatory cells HL-60 and HUVEC induced by TNF-a; settings: 1 ng/ml TNF-a; 0.2 ug/ml Ang1 or 0.1 ug/ml Ang2 + 0.5 ug/ml 10D6
Description: Meanwhile, if the expression of inflammatory adhesion substances (ICAM-1, E-selectin, etc.) of vascular endothelial cells is increased, binding between the inflammatory cells and the vascular endothelial cells are accelerated and inflammatory response is thus induced. To confirm this, an experiment for measuring binding between inflammatory cells HL-60 (ATCC) and HUVEC was conducted.
HUVEC cells (4×10^5) were cultured in a 24-mutiwell plate and treated with 0.1 ug/ml of Ang2 alone or 0.1 ug/ml of Ang2 together with 0.5 ug/ml of antibody 10D6, and a group in which 0.2 ug/ml of Ang1, and 0.1 ug/ml of Ang2 (R&D systems) and 0.5 ug/ml of Regeneron Co. antibody (RG antibody) were co-treated was included as a control group. As above, the HUVEC cells were treated with Angiopoietin and antibody and after 30-min. pre-incubation, they were treated with 1 ng/ml of TNF-a (eBioscience) to induce inflammatory response and incubated for 2 hours and 30 min.
After the HUVEC cells were washed with complete media (Lonza), HL-60 cells dyed with Calcein-AM (BD bioscience) solution were added at the amount of 2.5×10^5 cells to each well and incubated for 1 hour. […] The obtained lysate was transported to a 96-well plate, and fluorescence strengths derived from the HL-60 cells were measured at 485/535 nm (Ex/Em) setting using an Envision 2104 multilabel Reader (Perkin Elmer).

E-selectin = test: LPS-induced mRNA expression of E-selectin in HUVEC (qPCR); settings: 100 ng/ml LPS 5 hours, 0.2 ug/ml Ang1 or 0.1 ug/ml Ang2 + 0.5 ug/ml antibody
Description: as §1, §2, §3

Akt, eNOS and 42/44 = test: Phosphorylation of Tie2 downstream signaling proteins in HUVEC (immunoblot); settings: 60 nM 10D6 + 40 nM Ang2, or Ang1 4 nM alone, 30 min
Description: To see whether antibody 10D6 induces the activation of the downstream signaling of a Tie2 receptor as well as the activation of the Tie2 receptor itself, the phosphorylation degrees of proteins participating in the downstream signaling when Ang2 alone or Ang2 and antibody 10D6 was treated were tested using immune blotting.
Specifically, HUVEC (ATCC) cells (1×10^6) were cultured in a 6-well culture dish using EGM-2 (Lonza) media at 37° C. and when they reached 80˜90% confluency, the media were replaced with serum-free media (Lonza) and cultured at 37° C. for 6 to 16 hours. The dish was washed once with PBS, and the cultured cells were treated with a mixture prepared by mixing 60 nM of the Ang2 antibody (10D6) with 40 nM of Ang2 protein (R&D systems) and letting them stand for 20 min. and further cultured for 30 min. For comparison, groups in which Ang1 (R&D systems) 4 nM, Ang2 (R&D systems) 40 nM, and Ang2 (R&D systems) 40 nM+anti-Ang2 antibody (Regeneron) 60 nM were treated respectively were prepared.
The cells were washed using PBS, treated with a lysis buffer (Roche), collected to a tube to be dissolved at 4° C. for 30 min. and then, centrifuged at 13,000 rpm for 15 min. to measure a supernatant. A sample buffer (Invitrogen) mixed with a reducing agent was added to 25 ug of a cell lysate, which was boiled at 95° C. for 5 min., and then, applied to NuPAGE Novex 4-12% Bis-Tris gel (Invitrogen) and transferred onto Nitrocellulose membrane (Invitrogen).
To see the presence of the phosphorylation of Akt, eNOS and 42/44 involved in the downstream signaling, the blots were blocked with PBST mixed with 3% (v/v) skim milk (Sigma) for 30 min. and then treated with an anti pAkt antibody, anti p-eNOS antibody, and anti p-42/44 antibody (all of them; cell signaling). The blots were reacted in a stripping buffer (Thermo) for 15 min. and then blocked again to identify Akt, eNOS, and 42/44 using an anti Akt antibody, anti eNOS antibody, and anti 42/44 antibody (all of them; cell signaling).

HUVEC monolayer = test: In vitro vascular permeability assay (FITC-dextran); settings: 200 ng/ml Ang1 alone or 200 ng/ml Ang2 + 1 ug/ml 10D6
Description: To see the cell permeability suppression effects of antibody 10D6, in vitro vascular permeability assay kit (Millipore) was employed. HUVEC (ATCC) cells (5×10^4) were added to a collagen-coated transwell and cultured for 2 days to prepare a confluent monolayer. It was treated with 200 ng/ml of Ang2 or 200 ng/ml of Ang1 (R&D systems) alone, or 200 ng/ml of Ang2 and 1 ug/ml of antibody 10D6, pre-incubated for 30 min. and then, treated with 100 ng/ml of LPS (Lipopolysaccharide; Sigma) or 100 ng/ml TNF-a (R&D systems) to induce the permeability of HUVEC monolayer. LPS or TNF-a weakens binding between HUVEC cells to form a gap therebetween, thereby increasing the migration of materials in the HUVEC monolayer. After 6-hour incubation for the LPS treatment group and 22-hour incubation for the TNF-a group, the upper chamber was treated with FITC-dextran (Millipore) and incubated for 18 min. The fluorescence of FITC-dextran migrated to the lower chamber was measured at 485/535 nm (Ex/Em) setting using an Envision 2104 multilabel Reader (Perkinelmer).

B1: Ang1: Angiopoietin-1 protein (R&D systems), ligand which activates the Tie2 receptor (protein, UniProt Q15389 16-498, looked up)
Angiopoietin-1: HIGCSNQRRSPENSGRRYNRIQHGQCAYTFILPEHDGNCRESTTDQYNTNALQRDAPHVEPDFSSQKLQHLEHVMENYTQWLQKLENYIVENMKSEMAQIQQNAVQNHTATMLEIGTSLLSQTAEQTRKLTDVETQVLNQTSRLEIQLLENSLSTYKLEKQLLQQTNEILKIHEKNSLLEHKILEMEGKHKEELDTLKEEKENLQGLVTRQTYIIQELEKQLNRATTNNSVLQKQQLELMDTVHNLVNLCTKEGVLLKGGKREEEKPFRDCADVYQAGFNKSGIYTIYINNMPEPKKVFCNMDVNGGGWTVIQHREDGSLDFQRGWKEYKMGFGNPSGEYWLGNEFIFAITSQRQYMLRIELMDWEGNRAYSQYDRFHIGNEKQNYRLYLKGHTGTAGKQSSLILHGADFSTKDADNDNCMCKCALMLTGGWWFDACGPSNLNGMFYTAGQNHGKLNGIKWHYFKGPSYSLRSTTMMIRPLDF
expression of ICAM-1 induced by LPS (ICAM-1): remarkably suppressed | binding between HUVEC cells and HL-60 cells induced by TNF-a [1]: remarkably suppressed | expression of E-selectin induced by LPS (E-selectin): remarkably suppressed | downstream signaling (phosphorylation of Akt, eNOS, 42/44) compared to Ang2 sole-treatment and Ang2 + RG antibody (Akt, eNOS and 42/44): strongly induced | vascular permeability increased by LPS (HUVEC monolayer; 100 ng/ml LPS, 6 hour): decreased to the control level | vascular permeability increased by TNF-a (HUVEC monolayer; 100 ng/ml TNF-a, 22 hour): decreased to the control level
